Molecular target: recombinant human ACE2 receptor (SinoBiological) (human) (UniProt Q9BYF1)
UniProt Q9BYF1, sequence (Q9BYF1 18-740 limits assumed): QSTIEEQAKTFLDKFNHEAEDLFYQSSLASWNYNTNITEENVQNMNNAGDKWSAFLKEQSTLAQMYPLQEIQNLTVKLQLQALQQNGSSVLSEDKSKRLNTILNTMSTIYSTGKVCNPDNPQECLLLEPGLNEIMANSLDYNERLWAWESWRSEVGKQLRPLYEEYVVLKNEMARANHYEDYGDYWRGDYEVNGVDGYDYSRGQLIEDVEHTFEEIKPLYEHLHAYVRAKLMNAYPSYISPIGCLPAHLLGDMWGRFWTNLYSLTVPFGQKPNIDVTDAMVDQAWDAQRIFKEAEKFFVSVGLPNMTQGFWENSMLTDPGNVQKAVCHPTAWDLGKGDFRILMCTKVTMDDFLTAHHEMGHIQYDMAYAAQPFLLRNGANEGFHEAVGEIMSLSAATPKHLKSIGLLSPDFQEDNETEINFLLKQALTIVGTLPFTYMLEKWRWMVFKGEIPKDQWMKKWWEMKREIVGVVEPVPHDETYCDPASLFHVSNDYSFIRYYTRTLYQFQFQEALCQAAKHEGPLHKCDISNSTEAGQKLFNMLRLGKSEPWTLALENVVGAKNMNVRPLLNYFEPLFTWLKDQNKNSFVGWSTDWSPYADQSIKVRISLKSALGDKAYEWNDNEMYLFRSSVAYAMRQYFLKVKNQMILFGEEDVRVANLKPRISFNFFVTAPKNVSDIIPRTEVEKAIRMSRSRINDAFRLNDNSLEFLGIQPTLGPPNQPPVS

RBD-omicron BA.5 (RBD-C-tag) (other; other documents disagree on this pair)
fold higher binding activity than the reference Wuhan RBD-C-tag: 8 fold

RBD-omicron B.1.1.529 (RBD-C-tag) (other; other documents disagree on this pair)
fold higher binding activity than the reference Wuhan RBD-C-tag: 4 fold
